This passage reports Kd, koff and kon results from PMC3212078, “Atomic Force Microscopy Study of Protein–Protein Interactions in the Cytochrome CYP11A1 (P450scc)-Containing Steroid Hydroxylase System” (Nanoscale Research Letters, 2010).

Test [1] deals with T1, cytochrome CYP11A1 (P450scc) (bovine, UniProt P00189 40-520).
T1 construct: The same protein was used either untreated (oligomeric, non-monomerized) or after incubation with 4-12% Emulgen 913 (monomerized); the assays tell the two states apart; also called CYP11A1mon; monomerized CYP11A1; source: isolated from bovine adrenal glands
T1 sequence (looked up): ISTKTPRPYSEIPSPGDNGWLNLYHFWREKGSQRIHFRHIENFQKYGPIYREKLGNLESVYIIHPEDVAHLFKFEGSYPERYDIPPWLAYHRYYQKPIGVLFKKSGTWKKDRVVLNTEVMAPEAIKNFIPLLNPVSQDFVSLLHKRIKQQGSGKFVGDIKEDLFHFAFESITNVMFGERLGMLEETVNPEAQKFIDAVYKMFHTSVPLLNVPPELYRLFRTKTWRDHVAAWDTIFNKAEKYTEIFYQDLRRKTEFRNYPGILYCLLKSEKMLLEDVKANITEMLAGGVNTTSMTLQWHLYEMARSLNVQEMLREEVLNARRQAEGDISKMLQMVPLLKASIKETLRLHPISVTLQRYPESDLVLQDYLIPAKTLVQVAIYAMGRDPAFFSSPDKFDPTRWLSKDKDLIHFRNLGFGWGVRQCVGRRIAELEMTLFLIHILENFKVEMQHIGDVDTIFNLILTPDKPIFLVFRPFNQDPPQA
As to the kind of experiment: SPR; Biacore 3000; about 400 RU Ad coupled by EDC/NHS to a CM5 chip; oligomeric (non-monomerized) CYP11A1 injected at 1-100 nM; 50 mM potassium phosphate pH 7.4 with 1% Emulgen 913; 1:1 Langmuir model. To be noted: both partners purified. A general note: SPR reads the build-up and loss of mass on a sensor chip optically.

Test [2] has as its target T1, cytochrome CYP11A1 (P450scc). As to the kind of experiment: SPR; Biacore 3000; about 400 RU Ad coupled by EDC/NHS to a CM5 chip; monomeric (Emulgen 913-monomerized) CYP11A1 injected at 1-100 nM; 50 mM potassium phosphate pH 7.4 with 1% Emulgen 913; 1:1 Langmuir model. The note with it: both partners purified.

B1: adrenodoxin (natural protein, UniProt P00257 59-186, looked up)
chain: SSSEDKITVHFINRDGETLTTKGKIGDSLLDVVVQNNLDIDGFGACEGTLACSTCHLIFEQHIFEKLEAITDEENDMLDLAYGLTDRSRLGCQICLTKAMDNMTVRVPDAVSDARESIDMGMNSSKIE
notes: adrenodoxin (Ad), recombinant; source: E. coli BL21DE3, purified after sonification
Take B1: in test [1], the Kd – broadly, the constant that tells how readily two partners part at equilibrium – stood at 0.21 ± 0.02 µM; the koff (in general, the first-order rate constant of dissociation) worked out at 0.09 ± 0.009 s⁻¹; the kon (commonly the rate constant with which the complex forms) amounted to 420000 M⁻¹ s⁻¹. In test [2], this molecule registered a Kd of 0.17 ± 0.015 µM, a koff of 0.05 ± 0.005 s⁻¹ and a kon of 290000 M⁻¹ s⁻¹.
